Laboratory results taken from article PMC4837482, “The complex binding mode of the peptide hormone H2 relaxin to its receptor RXFP1” (Nature Communications, 2016).
Where a chain is given by its changes, count along the chain named.

What was measured:
RXFP1 [1] = molecular target: T1, RXFP1 (Homo sapiens, UniProt Q9HBX9); test: Eu-H2 relaxin saturation binding assay, transfected HEK293T cells; settings: Mn2+ replacing Eu3+ in the DTPA cage; method not described
T1 construct: transiently transfected human embryonic kidney (HEK) 293T cells expressing full-length RXFP1 and mutants; expressed in transfected cells; host or cells: HEK293T
T1 sequence (Q9HBX9 1-757): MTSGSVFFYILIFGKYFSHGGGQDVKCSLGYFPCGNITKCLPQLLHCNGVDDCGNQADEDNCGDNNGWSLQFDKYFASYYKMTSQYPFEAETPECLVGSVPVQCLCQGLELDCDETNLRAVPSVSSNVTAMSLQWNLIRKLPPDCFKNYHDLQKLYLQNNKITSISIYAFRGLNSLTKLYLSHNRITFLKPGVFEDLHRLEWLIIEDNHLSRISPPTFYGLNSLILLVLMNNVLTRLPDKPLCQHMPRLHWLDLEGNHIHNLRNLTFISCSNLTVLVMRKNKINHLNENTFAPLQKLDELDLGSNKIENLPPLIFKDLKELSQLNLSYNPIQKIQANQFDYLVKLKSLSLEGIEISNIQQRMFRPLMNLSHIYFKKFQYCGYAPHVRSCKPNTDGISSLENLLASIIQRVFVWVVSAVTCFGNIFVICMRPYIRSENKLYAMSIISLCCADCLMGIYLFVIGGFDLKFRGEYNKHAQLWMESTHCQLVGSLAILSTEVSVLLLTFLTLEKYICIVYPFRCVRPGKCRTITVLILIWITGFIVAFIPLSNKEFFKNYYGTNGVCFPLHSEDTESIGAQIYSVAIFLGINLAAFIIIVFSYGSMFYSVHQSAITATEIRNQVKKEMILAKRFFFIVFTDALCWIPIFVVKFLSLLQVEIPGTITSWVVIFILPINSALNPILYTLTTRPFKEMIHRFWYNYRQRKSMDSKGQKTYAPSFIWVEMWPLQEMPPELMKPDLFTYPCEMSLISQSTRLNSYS

RXFP1 [2] = molecular target: T1, RXFP1; test: cAMP activity assay (pCRE β-galactosidase reporter), transfected HEK293T cells; type: cell-based; settings: Mn2+ replacing Eu3+ in the DTPA cage; method not described
Protocol: Media was aspirated and plates stored frozen at −80 °C overnight. […] H2 relaxin dilutions were prepared in minimal media containing 1% DMSO. Positive and negative control stimulations were achieved by incubation with 5 μM Forskolin and minimal media/1% DMSO, respectively. Plates were developed by 10 min of incubation in 25 μl of lysis buffer 1 (100 mM Na2HPO4, pH 8.0, 0.2 mM MgSO4 0.01 mM MnCl2); a further 10 min of incubation in 100 μl of buffer 2 (100 mM Na2HPO4, pH 8.0, 2 mM MgSO4, 0.1 mM MnCl2, 0.5% Triton X-100, 40 mM β-mercaptoethanol); then to each well 25 μl of the β-galactosidase substrate, chlorophenol red-β-D-galactopyranoside (Roche) was added. All incubation steps were conducted with orbital shaking. Color-change was monitored and readings were taken on a Benchmark Plus Microplate Reader (Bio-Rad) at 570 nm. A minimum of three separate experiments were performed, each of them in triplicate, and data were pooled and presented as percentages of the maximum response induced by 5 μM Forskolin±s.e.m.

F54A-RXFP1(1–72) = molecular target: T2, F54A-RXFP1(1–72) (Homo sapiens, UniProt Q9HBX9, F76A); test: Paramagnetic line-broadening (1H-15N HSQC) titration with Mn2+-DTPA-(A)-H2; type: binding; settings: 50 μM F54A-RXFP1(1–72), 0.2 μM Mn2+-DTPA-(A)-H2; versus wild type
T2 construct: GB1 (N, cleaved yes); made in house; host or cells: E. coli BL21 (DE3) trxB
T2 sequence (Q9HBX9 23-94 F76A): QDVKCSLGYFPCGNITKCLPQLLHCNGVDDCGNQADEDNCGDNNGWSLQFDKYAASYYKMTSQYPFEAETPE
Protocol: (§1) All RXFP1(1–72) protein samples for nuclear magnetic resonance (NMR) experiments were prepared from lyophilized protein in 50 mM imidazole, with 10 mM CaCl2 at pH 6.8. Recombinant human gene-2 H2 relaxin peptide was kindly provided by Corthera. EL1^(475–486)/EL2-GB1 samples were prepared as described above. Titrant and titrand were dialyzed in the same buffer in the same vessel. All NMR experiments were routinely collected at 25 °C on a 700-MHz Bruker Avance HDIII spectrometer equipped with triple resonance cryoprobe. […] Backbone assignments were made from 3D HNCACB, HNCOCACB, HNCO and HNCACO experiments. Spectra were processed using NMRPipe (ref. [43]) and typically Fourier-transformed after applying Lorentz-to-Gauss window functions in the direct dimension and cosine bells in the indirect dimensions. NMR data were analysed using SPARKY (Goddard, T.D. and Kneller, D.G., University of California, San Francisco). Assignments of the mutant RXFP1(1–72) proteins were determined from the assignments of wild-type RXFP1(1–72).
(§2) ^15N{^1H}-NOE experiments[45] (2,048 × 256 data points) were acquired with a saturation pulse of 4 s and an additional relaxation delay of 5 s. Sample conditions were 150 μM RXFP(1–72) or mutants either without or with 450 μM H2 relaxin. Binding to Mn^2+-DTPA-(A)-H2 to RXFP1(1–72) and mutants was monitored by recording 2D ^1H-^15N HSQC (2,048 × 256 data points) for 0.2 μM Mn^2+-DTPA-(A)-H2 against 50 μM RXFP1(1–72). H2 relaxin and its truncates such as A-chain (9–24), H2/I5 chimera and Phe23Ala A-chain mutant H2 were titrated into a complex of 50 μM RXFP1(1–72) and 0.2 μM Mn^2+-DTPA-(A)-H2 with increasing concentrations ranging from 5 to 50 μM.

F50A RXFP1(1–72) = molecular target: T3, F50A RXFP1(1–72) (Homo sapiens, UniProt Q9HBX9, F72A); test: as above; type: binding; settings: 50 μM F50A RXFP1(1–72), 0.2 μM Mn2+-DTPA-(A)-H2; versus wild type
T3 construct: GB1 (N, cleaved yes); made in house; host or cells: E. coli BL21 (DE3) trxB
T3 sequence (Q9HBX9 23-94 F72A): T2 sequence (Q9HBX9 23-94 F76A) with F50A, A54F
Protocol: as §1, §2

G41A/D42A-RXFP1(1–72) = molecular target: T4, G41A/D42A-RXFP1(1–72) (Homo sapiens, UniProt Q9HBX9, D64A/G63A); test: as above; type: binding; settings: 50 μM G41A/D42A-RXFP1(1–72), 0.2 μM Mn2+-DTPA-(A)-H2; versus wild type
T4 construct: GB1 (N, cleaved yes); made in house; host or cells: E. coli BL21 (DE3) trxB
T4 sequence (Q9HBX9 23-94 G63A/D64A): T2 sequence (Q9HBX9 23-94 F76A) with G41A, D42A, A54F
Protocol: as §1, §2

F54A/Y58A RXFP1(1–72) = molecular target: T5, F54A/Y58A RXFP1(1–72) (Homo sapiens, UniProt Q9HBX9, F76A/Y80A); test: as above; type: binding; settings: 50 μM F54A/Y58A RXFP1(1–72), 0.2 μM Mn2+-DTPA-(A)-H2; versus wild type
T5 construct: GB1 (N, cleaved yes); made in house; host or cells: E. coli BL21 (DE3) trxB
T5 sequence (Q9HBX9 23-94 F76A/Y80A): T2 sequence (Q9HBX9 23-94 F76A) with Y58A
Protocol: as §1, §2

G45A/W46A-RXFP1(1–72) = molecular target: T6, G45A/W46A-RXFP1(1–72) (Homo sapiens, UniProt Q9HBX9, G67A/W68A); test: as above; type: binding; settings: 50 μM G45A/W46A-RXFP1(1–72), 0.2 μM Mn2+-DTPA-(A)-H2; versus wild type
T6 construct: GB1 (N, cleaved yes); made in house; host or cells: E. coli BL21 (DE3) trxB
T6 sequence (Q9HBX9 23-94 G67A/W68A): T2 sequence (Q9HBX9 23-94 F76A) with G45A, W46A, A54F
Protocol: as §1, §2

F50A^Ins-RXFP1(1–72) = molecular target: T7, F50A^Ins-RXFP1(1–72) (Homo sapiens, UniProt Q9HBX9, INS72A); test: as above; type: binding; settings: 50 μM F50A^Ins-RXFP1(1–72), 0.2 μM Mn2+-DTPA-(A)-H2; versus wild type
T7 construct: GB1 (N, cleaved yes); made in house; host or cells: E. coli BL21 (DE3) trxB
T7 sequence (Q9HBX9 with tags, fused parts or gaps INS72A): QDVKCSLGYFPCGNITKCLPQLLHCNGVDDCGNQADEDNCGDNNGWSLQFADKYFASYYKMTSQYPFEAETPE
Protocol: as §1, §2

In the case of “Mn^2+-DTPA-(A)-H2: H2 relaxin with a DTPA cage at the N-terminus of the A-chain loaded with Mn2+ (paramagnetic label)”, the “binding to RXFP1” value (RXFP1 [1]) is reported as “no difference”, the “activating RXFP1” value (RXFP1 [2]) is reported as “no difference” and the “line-broadening by Mn2+-DTPA-(A)-H2 (binding)” value (from here on “line-broadening”) (F54A-RXFP1(1–72)) is reported as “less than that observed for wild-type RXFP1(1–72)”. The “line-broadening” value (F50A RXFP1(1–72)) was “substantially reduced”, the “line-broadening” value (G41A/D42A-RXFP1(1–72)) was “attenuated” and the “line-broadening” value (F54A/Y58A RXFP1(1–72)) was “substantially reduced”. For the same substance, the “line-broadening” value (G45A/W46A-RXFP1(1–72)) was “substantially less than that observed for wild-type RXFP1(1–72)” and the “line-broadening” value (F50A^Ins-RXFP1(1–72)) was “reduced peak broadening”.
